Measurements taken from patent US11986450B2, “Methods and compositions for treating infection and inflammation with selenocyanate” (National Jewish Health, priority 2017, dated 2024).

Substrate: N#CSO
Assay: Kinetic analysis of HOSCN metabolism
Format: biochemical
Details: other: recombinant mouse Sec-TrxR
Description: FIGS. 3A-3B. Kinetic analysis of HOSCN metabolism by recombinant mouse Sec-TrxR and recombinant E. coli Cys-TrxR. […] Sec-TrxR forms that lack a selenocysteine (Sec489Cys) or truncated by the last 8 amino acids (D8) had diminished activity.

B1: recombinant mouse Sec-TrxR (Mus musculus) (protein)
chain: GGQQSFDLLVIGGGSGGLACAKEAAQLGKKVAVADYVEPSPRGTKWGLGGTCVNVGCIPKKLMHQAALLGGMIRDAHHYGWEVAQPVQHNWKTMAEAVQNHVKSLNWGHRVQLQDRKVKYFNIKASFVDEHTVRGVDKGGKATLLSAEHIVIATGGRPRYPTQVKGALEYGITSDDIFWLKESPGKTLVVGASYVALECAGFLTGIGLDTTVMMRSIPLRGFDQQMSSLVTEHMESHGTQFLKGCVPSHIKKLPTNQLQVTWEDHASGKEDTGTFDTVLWAIGRVPETRTLNLEKAGISTNPKNQKIIVDAQEATSVPHIYAIGDVAEGRPELTPTAIKAGKLLAQRLFGKSSTLMDYSNVPTTVFTPLEYGCVGLSEEEAVALHGQEHVEVYHAYYKPLEFTVADRDASQCYIKMVCMREPPQLVLGLHFLGPNAGEVTQGFALGIKCGASYAQVMQTVGIHPTCSEEVVKLHISKRSGLEPTVTGCUG
  Km: 30 µM
